Consider two substances from paper PMC6546751.

This experiment addresses FITC-casein (fluorescein-labeled casein, Sigma #C0528) (bovine). In words: not stated; apparent Kd of ClpB for casein in the presence of ATPγS (Supplementary Fig. 1d); method not given.

Take “Escherichia coli ClpB K476C hyperactive middle-domain variant (from UniProt P63284 1-857) (enzyme)”: the Kd was found to be 110 nM.

For “Escherichia coli ClpB, wild type (from UniProt P63284 1-857) (enzyme)”, the Kd was 130 nM.
